Assay [1] concerns the target T1, Anti-PSMA Fab (biotinylated (site not stated)).
T1 construct: also called 006 PSMA Fab
The experiment in a line: clonal phage ELISA on biotinylated PSMA Fab captured on neutravidin plate, anti-M13 HRP detection. Background: An ELISA detects its analyte on a solid surface through an enzyme-linked reagent.

Assay [2] has as its target T1, Anti-PSMA Fab. The assay is described as follows: clonal phage ELISA on captured PSMA Fab, wells pre-incubated with PSMA antigen as competitor, anti-M13 HRP detection.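 Note: crude clonal phage supernatants added, with no intervening wash, to wells preincubated with PSMA antigen in blocking buffer, incubated briefly, then washed before detecting bound phage.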
Procedure: (§1) Clonal phage were harvested as crude supernatants and screened via standard ELISAs. […] Prior to the addition of clonal phage. wells were incubated with blocking buffer and PSMA antigen or blocking buffer alone. Without washing or aspirating, clonal phage supernatants were then added to the wells and incubated for a short time. Wells were then washed followed by detection of bound phage using a horse radish conjugated anti-M13 antibody.
Assay [3] deals with T2, PSMA Fab (006 PSMA Fab).
T2 construct: also called Anti-PSMA Fab
The experiment in a line: clonal phage ELISA on captured PSMA Fab, wells pre-incubated with PSMA antigen as competitor.
Procedure: as §1

For assay [4], the target named is T2, PSMA Fab (006 PSMA Fab). The experiment in a line: clonal phage ELISA on biotinylated PSMA Fab captured on neutravidin, anti-M13 HRP detection.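 Note: crude clonal phage supernatants added to wells pretreated with PSMA antigen in blocking buffer or with blocking buffer only, then briefly incubated.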
Procedure: as §1

We go through 18 molecules from US20260242478A1 (published 2026).

VVPLCVPMWMCSPM (Clonal phage of the Peptide-180 library) [Phage-3557]: in the assay with Anti-PSMA Fab [1], the “Phage binding ELISA signal, Anti-PSMA Fab” value was determined as 1.64. Moreover, the “Phage binding ELISA signal, Anti-PSMA Fab with PSMA antigen” value with Anti-PSMA Fab [2] was 0.0867.

B1: Phage-3562 (peptide)
peptide: DDIRCEPIWMCTGF
notes: Peptide-180 library clone, tested as clonal phage supernatant with the peptide fused to pIII of the bacteriophage
Regarding B1, the “Phage binding ELISA signal, Anti-PSMA Fab in presence of PSMA” value (from here on “Phage binding ELISA signal … of PSMA”) with PSMA Fab (006 PSMA Fab) [3] is 0.0657. In addition, in the assay with PSMA Fab (006 PSMA Fab) [4], the “Phage binding ELISA signal, Anti-PSMA Fab” value is 1.64.

B2: Phage-3565 (peptide)
peptide: ELLKCVPQWMCTGF
notes: as for B1
As to B2, in the assay with PSMA Fab (006 PSMA Fab) [3], the “Phage binding ELISA signal … of PSMA” value was 0.126. The “Phage binding ELISA signal, Anti-PSMA Fab” value in the assay with PSMA Fab (006 PSMA Fab) [4] was determined as 1.63.

In the case of AGMMCTPPWMCFGF (Clonal phage of the Peptide-180 library) [Phage-3554], the “Phage binding ELISA signal, Anti-PSMA Fab” value with Anti-PSMA Fab [1] stood at 1.64. Besides, the “Phage binding ELISA signal, Anti-PSMA Fab with PSMA antigen” value with Anti-PSMA Fab [2] worked out at 0.0664.

B3: Phage-3566 (peptide)
peptide: VSTMCVPEWMCGGF
notes: as for B1
With B3, in the assay with PSMA Fab (006 PSMA Fab) [3], the “Phage binding ELISA signal … of PSMA” value worked out at 0.122. In addition, the “Phage binding ELISA signal, Anti-PSMA Fab” value in the assay with PSMA Fab (006 PSMA Fab) [4] is 1.63.

B4: Phage-3570 (peptide)
peptide: VDKACTPAWMCTGF
notes: as for B1
On to B4, for which the “Phage binding ELISA signal … of PSMA” value with PSMA Fab (006 PSMA Fab) [3] amounted to 0.0716. In addition, the “Phage binding ELISA signal, Anti-PSMA Fab” value with PSMA Fab (006 PSMA Fab) [4] was found to be 1.62.

B5: Phage-3563 (peptide)
peptide: EHRICVPQWMCTGF
notes: as for B1
Take B5: in the assay with PSMA Fab (006 PSMA Fab) [3], the “Phage binding ELISA signal … of PSMA” value was determined as 0.0676. Also, the “Phage binding ELISA signal, Anti-PSMA Fab” value in the assay with PSMA Fab (006 PSMA Fab) [4] is 1.64.

Take TYFRCEPSWMCTGL (Clonal phage of the Peptide-180 library) [Phage-3559]: the “Phage binding ELISA signal, Anti-PSMA Fab” value with Anti-PSMA Fab [1] worked out at 1.64. For the same molecule, in the assay with Anti-PSMA Fab [2], the “Phage binding ELISA signal, Anti-PSMA Fab with PSMA antigen” value came out at 0.073.

Take MERWCIPVWMCQGL (Clonal phage of the Peptide-180 library) [Phage-3560]: the “Phage binding ELISA signal, Anti-PSMA Fab” value with Anti-PSMA Fab [1] was 1.64. Moreover, in the assay with Anti-PSMA Fab [2], the “Phage binding ELISA signal, Anti-PSMA Fab with PSMA antigen” value came to 0.0734.

B6: Phage-3564 (peptide)
peptide: SPSYCVPKWMCVGF
notes: as for B1
On to B6, for which the “Phage binding ELISA signal … of PSMA” value with PSMA Fab (006 PSMA Fab) [3] came to 0.0712. The “Phage binding ELISA signal, Anti-PSMA Fab” value in the assay with PSMA Fab (006 PSMA Fab) [4] was found to be 1.64.

Consider QSMMCIPSWMCVGF (Clonal phage of the Peptide-180 library) [Phage-3556], for which the “Phage binding ELISA signal, Anti-PSMA Fab” value with Anti-PSMA Fab [1] stood at 1.64. For the same molecule, the “Phage binding ELISA signal, Anti-PSMA Fab with PSMA antigen” value in the assay with Anti-PSMA Fab [2] amounted to 0.0679.

B7: Phage-3569 (peptide)
peptide: VAQWCTPSWMCDGF
notes: as for B1
As for B7, in the assay with PSMA Fab (006 PSMA Fab) [3], the “Phage binding ELISA signal … of PSMA” value is 0.0794. Moreover, the “Phage binding ELISA signal, Anti-PSMA Fab” value with PSMA Fab (006 PSMA Fab) [4] is 1.62.

Regarding VDRLCVPNWMCMGL (Clonal phage of the Peptide-180 library) [Phage-3552], the “Phage binding ELISA signal, Anti-PSMA Fab” value with Anti-PSMA Fab [1] was determined as 1.64. For the same molecule, the “Phage binding ELISA signal, Anti-PSMA Fab with PSMA antigen” value with Anti-PSMA Fab [2] turned out to be 0.072.

Regarding LAVRCIPEWMCYGL (Clonal phage of the Peptide-180 library) [Phage-3555], in the assay with Anti-PSMA Fab [1], the “Phage binding ELISA signal, Anti-PSMA Fab” value turned out to be 1.64. Also, in the assay with Anti-PSMA Fab [2], the “Phage binding ELISA signal, Anti-PSMA Fab with PSMA antigen” value stood at 0.0644.

B8: Phage-3568 (peptide)
peptide: PEAYCVPSWMCTGF
notes: as for B1
In the case of B8, the “Phage binding ELISA signal … of PSMA” value in the assay with PSMA Fab (006 PSMA Fab) [3] amounted to 0.0764. Besides, the “Phage binding ELISA signal, Anti-PSMA Fab” value with PSMA Fab (006 PSMA Fab) [4] worked out at 1.62.

B9: Phage-3567 (peptide)
peptide: DAMLCRPSWMCDGF
notes: as for B1
As to B9, the “Phage binding ELISA signal … of PSMA” value with PSMA Fab (006 PSMA Fab) [3] is 0.0871. The “Phage binding ELISA signal, Anti-PSMA Fab” value with PSMA Fab (006 PSMA Fab) [4] came out at 1.62.

VVNFCKPQWMCSGF (Clonal phage of the Peptide-180 library) [Phage-3561]: the “Phage binding ELISA signal, Anti-PSMA Fab” value with Anti-PSMA Fab [1] amounted to 1.64. Also, the “Phage binding ELISA signal, Anti-PSMA Fab with PSMA antigen” value with Anti-PSMA Fab [2] amounted to 0.0682.

Turning to VEPACVPLWMCFGL (Clonal phage of the Peptide-180 library) [Phage-3558], the “Phage binding ELISA signal, Anti-PSMA Fab” value in the assay with Anti-PSMA Fab [1] came to 1.64. For the same molecule, the “Phage binding ELISA signal, Anti-PSMA Fab with PSMA antigen” value with Anti-PSMA Fab [2] was 0.0619.
